Target: T1, nucleolin (Homo sapiens, UniProt P19338)
T1 construct: The cells were not transfected; also called cell surface nucleolin; source: endogenous, on nucleolin-overexpressing MDA-MB-435S cells
Assay: flow cytometry on cells; 1.5 x 10^5 MDA-MB-435S cells with 1 µg of each purified VHH, 45 min at 4 °C, PBS with 1% BSA; detected with anti-HA-Alexa Fluor 647; MFI normalised to cells with secondary antibody only; a representative experiment
Settings: one partner purified

T1 sequence (P19338 whole entry): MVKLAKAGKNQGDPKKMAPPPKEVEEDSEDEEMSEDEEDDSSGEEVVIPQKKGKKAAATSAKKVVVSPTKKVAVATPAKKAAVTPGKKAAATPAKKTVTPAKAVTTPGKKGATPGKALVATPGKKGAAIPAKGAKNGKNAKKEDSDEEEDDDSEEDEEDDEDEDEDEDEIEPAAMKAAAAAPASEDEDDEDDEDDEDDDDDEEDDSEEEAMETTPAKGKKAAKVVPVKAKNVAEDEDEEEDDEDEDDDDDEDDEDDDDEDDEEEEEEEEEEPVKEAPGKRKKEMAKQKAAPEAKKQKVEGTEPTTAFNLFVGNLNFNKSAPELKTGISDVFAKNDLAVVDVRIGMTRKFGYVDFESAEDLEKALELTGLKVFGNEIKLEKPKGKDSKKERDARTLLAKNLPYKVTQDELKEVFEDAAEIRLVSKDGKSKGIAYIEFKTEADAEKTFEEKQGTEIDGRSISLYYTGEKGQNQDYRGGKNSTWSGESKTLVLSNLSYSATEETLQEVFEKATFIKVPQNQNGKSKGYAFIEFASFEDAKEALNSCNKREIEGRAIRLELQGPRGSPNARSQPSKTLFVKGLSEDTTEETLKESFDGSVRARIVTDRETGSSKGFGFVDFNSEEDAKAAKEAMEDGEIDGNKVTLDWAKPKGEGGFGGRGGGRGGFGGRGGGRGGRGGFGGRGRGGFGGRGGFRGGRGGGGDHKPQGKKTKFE

| fold increase in binding (normalised MFI) relative to the reference VHH | Binder |
| --- | --- |
| 1.4 fold | VHH clone D10 (VHH, source: ER2738 E. coli, IPTG induction, purified (Dynabeads His-Tag Isolation & Pulldown)) VHH: QVQLQESGGGLVQPGGSLRLSCAASGRASASSARSARAIGWFRQAPGKEREFVARIYWSSGNTYYADSVKGRFAISRDIAKNTVDLTMNNLEPEDTAVYYCAAPQRRSARLSAWGQGTQVTVSS |
| 2 fold | VHH clone D11 (VHH, source: ER2738 E. coli, IPTG induction, purified (Dynabeads His-Tag Isolation & Pulldown)) VHH: QVQLQESGGGLVQPGGSLRLSCAASGRASASSARSARAIGWFRQAPGKEREFVARIYWSSGNTYYADSVKGRFAISRDIAKNTVDLTMNNLEPEDTAVYYCAAPQRRSARLSAWGQGTQVTVSS |

Source: paper PMC11079059, “Development of a new affinity maturation protocol for the construction of an internalizing anti-nucleolin antibody library” (Scientific Reports, 2024)
